Results reported in patent EP0501215B1.

Biological target: CEA (Carcinoembryonic Antigen) (UniProt P06731)
Test: competition ELISA on CEA-coated plates; competitor of murine MAK BW 431/26 (5 ng/ml)

Sequence of UniProt P06731 (P06731 35-685 limits assumed): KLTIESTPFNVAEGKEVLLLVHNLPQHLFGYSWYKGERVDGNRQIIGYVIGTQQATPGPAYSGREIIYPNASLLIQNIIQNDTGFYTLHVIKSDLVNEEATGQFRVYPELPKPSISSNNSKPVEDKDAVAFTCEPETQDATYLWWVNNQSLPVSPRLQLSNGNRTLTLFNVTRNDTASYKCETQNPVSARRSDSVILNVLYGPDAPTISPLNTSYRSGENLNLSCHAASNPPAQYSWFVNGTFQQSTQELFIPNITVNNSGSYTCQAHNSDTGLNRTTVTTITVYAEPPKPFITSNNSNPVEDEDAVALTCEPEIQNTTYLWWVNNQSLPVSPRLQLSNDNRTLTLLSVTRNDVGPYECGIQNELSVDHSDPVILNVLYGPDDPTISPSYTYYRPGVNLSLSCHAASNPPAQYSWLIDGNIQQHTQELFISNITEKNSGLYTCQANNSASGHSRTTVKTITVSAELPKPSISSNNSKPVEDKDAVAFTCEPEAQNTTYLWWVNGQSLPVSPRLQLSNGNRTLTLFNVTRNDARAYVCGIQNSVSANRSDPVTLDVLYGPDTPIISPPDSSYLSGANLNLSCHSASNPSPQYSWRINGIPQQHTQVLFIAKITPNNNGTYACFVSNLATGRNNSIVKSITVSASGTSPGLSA

molar excess of competitor for 50 % inhibition: 200 molar excess
Substance: humanized MAK BW 431/26 (antibody)
